Measured values reported in patent US20080124327A1 (published 2008).

B1: (hu)ARH460-16-2 variant HV1/KV1 (antibody, V domains shown)
VH: EVQLVESGGGLVQPGGSLRLSCAASGFDFSRYWMSWVRQAPGKGLVWVGEVNPDSTSINYTPSLKDRFTISRDNAKNTLYLQMNSLRAEDTAVYYCTRPNYYGSRYHYYAMDYWGQGTLVTVSS
VL: DIQMTQSPSSLSASVGDRVTITCRASQDINNYLNWYQQKPGKAPKLLIYYTSRLHSGVPSRFSGSGSGTDFTFTISSLQPEDIATYYCQQGSTLPFTFGQGTKLEIK
notes: Humanized variable regions cloned into pANT18 (human IgG1 constant region, human kappa constant region); also called (hu)ARH460-16-2 variant 1; huARH460-16-2-variant 1
B2: H460-16-2 (murine monoclonal antibody produced by the hybridoma deposited with the ATCC as accession number PTA-4621) (antibody, V domains shown)
VH: EVKLLESGGGLVQPGGSLKLSCATSGFDFSRYWMSWVRQAPGKGLEWIGEVNPDSTSINYTPSLKDQFIISRDNAKNTLDLQMSKVSSEDTALYYCTRPNYYGSRYHYYAMDYWGQGTSVTVSS
VL: DIQMTQTTSSLSVSLGDRVTINCRASQDINNYLNWYQQKPDGTVKLLIYYTSRLHSGVPSRFSGSGSGTDFSLTISNLEKEDVATYFCQQGSTLPFTFGSGTKLEIK

Molecular target: T1, Recombinant human CD44/Fc (R&D Systems, Minneapolis, Minn., USA) (human, UniProt P16070 21-220)
T1 construct: Purchased reagent, amine-coupled to a CM5 chip at about 500 RU; also called rhCD44; recombinant CD44; not shown: Fc part of the purchased fusion
T1 sequence (P16070 21-220): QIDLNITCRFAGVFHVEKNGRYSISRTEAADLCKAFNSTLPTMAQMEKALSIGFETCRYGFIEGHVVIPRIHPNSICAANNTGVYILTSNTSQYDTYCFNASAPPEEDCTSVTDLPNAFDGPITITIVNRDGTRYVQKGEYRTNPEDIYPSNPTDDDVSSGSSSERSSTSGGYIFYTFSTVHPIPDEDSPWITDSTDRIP
Experiment: SPR (Biacore T100); rhCD44/Fc amine-coupled to a CM5 chip, antibody injected at 0.67 to 667 nM, 1:1 model

Binder	Kd [nM]
B1	6.32
B2	4.19
